This note sets out measurements from patent publication US10513547B2, “Peptides and combination of peptides and scaffolds thereof for use in immunotherapy against colorectal carcinoma (CRC) and other cancers” (Immatics Biotechnologies GmbH, priority 2015, dated 2019).

In this assay the target is HLA-A*02:01 (Homo sapiens, UniProt P04439, D140Y/D185E/D98H/E176V/E277Q/G131W/G231S/I119V/I121R/I166T/I218V/L300P/L318F/N151K/N90K/P208A/P217A/Q86G/Q94H/R138H/R169H/T345S). In words: MHC binding assay (UV-ligand exchange, beta2m ELISA, peptide exchange yield). As to conditions: binding to HLA-A*02:01. The text has this: Candidate peptides for T cell based therapies according to the present invention were further tested for their MHC binding capacity (affinity). The individual peptide-MHC complexes were produced by UV-ligand exchange, where a UV-sensitive peptide is cleaved upon UV-irradiation, and exchanged with the peptide of interest as analyzed. Only peptide candidates that can effectively bind and stabilize the peptide-receptive MHC molecules prevent dissociation of the MHC complexes. To determine the yield of the exchange reaction, an ELISA was performed based on the detection of the light chain ([…]) of stabilized MHC complexes. The assay was performed as generally described in Rodenko et al. (Rodenko et al., 2006).
96 well MAXISorp plates (NUNC) were coated over night with 2 ug/ml streptavidin in PBS at room temperature, washed 4× and blocked for 1 h at 37° C. in 2% BSA containing blocking buffer. Refolded HLA-A*02:01/MLA-001 monomers served as standards, covering the range of 15-500 ng/ml. Peptide-MHC monomers of the UV-exchange reaction were diluted 100 fold in blocking buffer. Samples were incubated for 1 h at 37° C., washed four times, incubated with 2 ug/ml HRP conjugated anti-β2m for 1 h at 37° C., washed again and detected with TMB solution that is stopped with […]. Absorption was measured at 450 nm. Candidate peptides that show a high exchange yield (preferably higher than 50%, most preferred higher than 75%) are generally preferred for a generation and production of antibodies or fragments thereof, and/or T cell receptors or fragments thereof, as they show sufficient avidity to the MHC molecules and prevent dissociation of the MHC complexes.
For orientation: In an ELISA, binding on a coated surface is turned into a signal by an enzyme label.
Consider “174 (ILLDDNMQIRL; listed as Homo sapiens) [compound 174]”, for which the “Peptide exchange (MHC class I binding score, peptide exchange yield)” value (from here on “Peptide exchange”) is listed as ““++++” (≥75% = ++++)”. In the case of “74 (YLMGFLHAV; listed as Homo sapiens) [compound 74]” it was ““+++” (≥50 = +++)”; in that of “98 (AMNGKSFSV; listed as Homo sapiens) [compound 98]”, ““++” (≥20% = ++)”; in that of “20 (YLKDGDVML; listed as Homo sapiens) [compound 20]”, ““+++” (≥50 = +++)”. On to “135 (KLQEEIPVL; listed as Homo sapiens) [compound 135]”, for which the “Peptide exchange” value is given as ““++” (≥20% = ++)”.

In the case of “147 (TLTELRAFL; listed as Homo sapiens) [compound 147]”, the “Peptide exchange” value is on record as ““++++” (≥75% = ++++)”.

For the substance “187 (GLHNVVYGI; listed as Homo sapiens) [compound 187]”, the “Peptide exchange” value is ““+++” (≥50 = +++)”.

“140 (LLNEILEQV; listed as Homo sapiens) [compound 140]”: the “Peptide exchange” value is listed as ““+++” (≥50 = +++)”. For “181 (NLFDLGGQYLRV; listed as Homo sapiens) [compound 181]” the value was ““+++” (≥50 = +++)”; for “54 (ALLNGEYLLAA; listed as Homo sapiens) [compound 54]”, ““+++” (≥50 = +++)”.

Regarding “119 (ILYQTVTGL; listed as Homo sapiens) [compound 119]”, the “Peptide exchange” value was ““++” (≥20% = ++)”. “175 (TLLGGKEAQALGV; listed as Homo sapiens) [compound 175]”: the “Peptide exchange” value is listed as ““+++” (≥50 = +++)”. In the case of “162 (KLMDYIDEL; listed as Homo sapiens) [compound 162]” it was ““+++” (≥50 = +++)”; in that of “186 (KMSEKILLL; listed as Homo sapiens) [compound 186]”, ““+++” (≥50 = +++)”; in that of “88 (KLDIKVETV; listed as Homo sapiens) [compound 88]”, ““++++” (≥75% = ++++)”.

Turning to “178 (YLFREPATI; listed as Homo sapiens) [compound 178]”, the “Peptide exchange” value was ““++” (≥20% = ++)”. For “182 (SLNKWIFTV; listed as Homo sapiens) [compound 182]” the value was ““++++” (≥75% = ++++)”; for “25 (SLADRLIGV; listed as Homo sapiens) [compound 25]”, ““++++” (≥75% = ++++)”; for “46 (GLDDRYSLV; listed as Homo sapiens) [compound 46]”, ““+++” (≥50 = +++)”. In the case of “139 (VLLNEILEQV; listed as Homo sapiens) [compound 139]” it was ““+++” (≥50 = +++)”; in that of “168 (GLIRFPLMTI; listed as Homo sapiens) [compound 168]”, ““+++” (≥50 = +++)”; in that of “62 (YLAPENGYL; listed as Homo sapiens) [compound 62]”, ““++” (≥20% = ++)”. In the case of “27 (LLADEDSSYL; listed as Homo sapiens) [compound 27]” it was ““++” (≥20% = ++)”. “169 (YLAHFIEGL; listed as Homo sapiens) [compound 169]”: the “Peptide exchange” value is on record as ““+++” (≥50 = +++)”. In the case of “188 (FLVDGPRVQL; listed as Homo sapiens) [compound 188]” it was ““+++” (≥50 = +++)”; in that of “16 (VLVDQSWVL; listed as Homo sapiens) [compound 16]”, ““+++” (≥50 = +++)”. As to “103 (FLFGYPKRL; listed as Homo sapiens) [compound 103]”, the “Peptide exchange” value is listed as ““++” (≥20% = ++)”. In the case of “154 (KLPSETIFVGC; listed as Homo sapiens) [compound 154]” it was ““+++” (≥50 = +++)”; in that of “87 (LLFDAPDLRL; listed as Homo sapiens) [compound 87]”, ““+++” (≥50 = +++)”. In the case of “173 (KLGDLMVLL; listed as Homo sapiens) [compound 173]” it was ““+++” (≥50 = +++)”; in that of “80 (QVDEVVDIMRV; listed as Homo sapiens) [compound 80]”, ““++” (≥20% = ++)”; in that of “83 (LTIEDGIFEV; listed as Homo sapiens) [compound 83]”, ““+++” (≥50 = +++)”. On to “158 (GLLDPSVFHV; listed as Homo sapiens) [compound 158]”, for which the “Peptide exchange” value is on record as ““+++” (≥50 = +++)”. In the case of “53 (FLLGSEIKL; listed as Homo sapiens) [compound 53]” it was ““+++” (≥50 = +++)”; in that of “146 (ALSDETWGL; listed as Homo sapiens) [compound 146]”, ““++” (≥20% = ++)”; in that of “95 (AILDAHIEV; listed as Homo sapiens) [compound 95]”, ““++++” (≥75% = ++++)”. Consider “143 (KLSDVWKEL; listed as Homo sapiens) [compound 143]”, for which the “Peptide exchange” value was ““+++” (≥50 = +++)”. In the case of “106 (SLISEKILL; listed as Homo sapiens) [compound 106]” it was ““+++” (≥50 = +++)”. For the substance “14 (FLDKPEDVLL; listed as Homo sapiens) [compound 14]”, the “Peptide exchange” value was ““++” (≥20% = ++)”.

Regarding “67 (SLNDLEKDVMLL; listed as Homo sapiens) [compound 67]”, the “Peptide exchange” value is ““+++” (≥50 = +++)”. For the substance “164 (KMLDEILLQL; listed as Homo sapiens) [compound 164]”, the “Peptide exchange” value is ““++++” (≥75% = ++++)”.

On to “29 (QMLDVAIRV; listed as Homo sapiens) [compound 29]”, for which the “Peptide exchange” value is ““+++” (≥50 = +++)”. For “96 (KLYSRLVYV; listed as Homo sapiens) [compound 96]”, the “Peptide exchange” value was ““++” (≥20% = ++)”. In the case of “113 (ILYDLQQNL; listed as Homo sapiens) [compound 113]” it was ““++” (≥20% = ++)”; in that of “117 (TLQPVDNSTISL; listed as Homo sapiens) [compound 117]”, ““++” (≥20% = ++)”; in that of “189 (AISEVIGKITA; listed as Homo sapiens) [compound 189]”, ““+++” (≥50 = +++)”. For “44 (SLESKLTSV; listed as Homo sapiens) [compound 44]” the value was ““+++” (≥50 = +++)”. For “28 (ALTEIQEFI; listed as Homo sapiens) [compound 28]” the value was ““++++” (≥75% = ++++)”; for “48 (FLDASDPAL; listed as Homo sapiens) [compound 48]”, ““++” (≥20% = ++)”.

In the case of “100 (SLDDFLATA; listed as Homo sapiens) [compound 100]”, the “Peptide exchange” value is ““+++” (≥50 = +++)”. In the case of “125 (KLGDFGLLVEL; listed as Homo sapiens) [compound 125]” it was ““++++” (≥75% = ++++)”; in that of “43 (TLDAAQPRV; listed as Homo sapiens) [compound 43]”, ““++” (≥20% = ++)”.

For the substance “58 (AMADKMDMSL; listed as Homo sapiens) [compound 58]”, the “Peptide exchange” value is ““++” (≥20% = ++)”. Take “120 (VLYEGVDEV; listed as Homo sapiens) [compound 120]”: the “Peptide exchange” value is reported as ““++” (≥20% = ++)”. For “159 (VLVDDDGIKVV; listed as Homo sapiens) [compound 159]” the value was ““++” (≥20% = ++)”; for “24 (VLDGVLMEL; listed as Homo sapiens) [compound 24]”, ““+++” (≥50 = +++)”.
